From PMC5381946 (PLoS Pathogens, 2017)
pIC50: −log10 of the molar value.

Test system: c-Jun;c-Fos (;)
Assay: EMSA
Details: EMSA: 10 mM Tris-HCl pH 7.5, 50 mM NaCl, 5 mM MgCl2, 20 min at 37 C, then 20 min with DNA, 5% native TBE-PAGE at 4 C

For AP-1 oligonucleotide, the pIC50 (reduced APE1 + inhibitor C10 (IC50 of the compound, not of DNA)) was 4.77 and the pIC50 (reduced APE1 + inhibitor E3330 (IC50 of the compound, not of DNA)) was 4.44.
